From patent US20040170601A1, “Method of improving the growth performance of an animal” (priority 2001, published 2004)
“Also recorded” adds a separate entry of the source.

How the values were obtained:
[1] = test system: haemorrhagic E. coli; experiment: Example 6: haemorrhagic E. coli challenge of weaner pigs; type: in vivo; parameters: decrease in faecal shedding (total faecal culture scores) compared to saline treated controls / reduction in clinical signs compared to saline controls / reduction in E. coli culture scores at post-mortem compared to saline controls / reduction of bacterial load in the small intestine (foregut) compared with saline controls: concentration or dose not given beside the values
Procedure: Male weaner pigs, with a mean weight of 5.4 kg were allocated to groups of 8, with the mean weight being equalised between groups. Pigs were housed in group pens. Pigs were provided with pelleted feed and water ad libitum.
Pigs were treated with cytokines or the antibiotic, Apralan, and challenged with E. coli according to the schedule outlined in FIG. 42. E. coli were delivered orally in an 8 ml dose containing 10^8 cfu/ml. Blood was sampled from pigs by venipuncture at −2 days, day 0, and +6 days from initial challenge with E. coli as outlined in FIG. 42. Blood was assayed for immunological parameters as previously described. Pigs were weighed at day −2 and at the end of the trial on day 7.
Faecal samples were taken from each pig daily from day 2 to day 6 after challenge; these samples were cultured on sheep blood agar to quantify E. coli load. The condition of faeces on each day of challenge was noted as normal, wet or diarrhoea, as an indication of clinical signs.
At the conclusion of the experiment, pigs were euthanased and samples were taken from different areas in the gastro-intestinal tract, including the small intestine (25%, 50% and 75% along the length of the small intestine), the caecum and colon, and from the faeces. These post-mortem samples were also plated out on sheep blood agar to quantify E. coli load. Growth on sheep blood agar was scored from 0 to 5 (where 0 was no growth, 1 signified growth in the primary inoculum, 2 signified growth in the first streak, 3 signified growth in the 2nd streak, 4 signified growth in the 3rd streak, and 5 signified growth of E. coli in the final streak), and group means and standard errors were calculated.

[2] = test system: Brachyspira (Serpulina) hyodysenteriae; experiment: Example 7: swine dysentery challenge, IL-5 prophylactic; type: in vivo, pigs; parameters: reduction in the number of spirochaetes compared to saline treated pigs: concentration or dose not given beside the values
Excerpt: One aim of this example was to determine whether IL-5 could improve the health of pigs infected with an enteric inflammatory pathogen causing swine dysentery, Brachyspira (Serpulina) hyodysenteriae. A further aim was to determine whether IL-5 could improve the growth rate of pigs under conditions of challenge with swine dysentery.
Male pigs with a mean starting weight of 6.5 kg, were allocated to treatment groups consisting of eight pigs (Table 6). Pigs were housed in group pens, with each pen containing a replicate from each of the treatment groups. One group of 8 pigs was housed in a separate room and left uninfected to act as untreated controls. Pigs were provided with pelleted feed and water ad libitum.
Prior to swine dysentery challenge, pigs were treated with recombinant IL-5 or saline, as described in Table 6. Cytokines and the antibiotic, Lincomycin, were delivered by intramuscular injection at intervals outlined in Table 7. Pigs were infected with Brachyspira hyodysenteriae at day 0, day 1 and day 2, given as an oral bolus of 120 ml of spirochaete culture in log phase of growth, containing approximately […].
Faecal swabs and blood samples were taken from each pig at intervals described in Table 7. Faecal swabs were cultured for the presence of spirochaetes. Blood samples were assayed for immunological parameters as described in example 1 above. Pigs were weighed at weekly intervals throughout the experiment, which was terminated by euthanasia on days 19 and 20 after the initial challenge. At post mortem swabs from areas of the hindgut were cultured for the presence of spirochaetes, and the gross pathological condition of the gastro-intestinal tissue noted.

[3] = test system: eosinophils; experiment: Example 3: mode of administration of IL-5 (protein or DNA) on eosinophils; type: in vivo, pigs; settings: six times over 2 weeks
Procedure: This trial compared the delivery of IL-5 as recombinant protein or by DNA using different routes of administration. Each treatment was administered six times over 2 weeks (Days 0, 1, 3, 6, 8, 10).
6 pigs/treatment group. Blood haematology measured.
The experiment was conducted using medicated feed Barastoc EziWean 150 then Bunge Grolean CREEP ad libitum in an experimental environment (PC2 containment facilities).
Blood total and differential counts were performed using a CellDyn 3700 haematology machine.

[4] = test system: eosinophils; experiment: Example 4: % eosinophils of WBC in blood; type: in vivo, pigs; settings: blood the day after treatment, end of weaner period
Excerpt: Blood and sera samples collected at the start (before treatments) and end of the weaner period. Blood and sera were taken prior to injecting samples.
Blood was taken the day after IL-5 and saline treatments and represent a single time point only. […] As a general observation IL-5 plus medication had higher eosinophils numbers than the IL-5 without antibiotics.

[5] = test system: eosinophils; experiment: Example 5: haematology, eosinophil levels; parameters: species or system pigs; settings: pig, in vivo
Procedure: Pigs were weaned and weighted at the start of the experiment (D0, W0) and weekly until the end of the weaner period (W6), at the end of the grower (W13) and finisher (W19) stages and once during the grower (W9) and finisher (W16) stages. Blood and sera samples were collected at the start (before treatments) and end of the weaner, grower and finisher periods. Blood and sera were taken prior to treatment injection. Haematology (totals and differentials) was performed.
Haematology and differentials were undertaken at various time points during the trial. There were no significant changes between groups for these parameters except for eosinophil levels (FIG. 41).

B1: interleukin 5 (protein, UniProt Q9MYM5 22-134, looked up)
Interleukin-5: VENTMNRLVAETLTLLSIHRTLLIGDGNLMISTPVHTNHQLCIEEVFQGIDTLKNQTARGDAVEKLFQNLSLIKEYIDRQKKNCGGERWRVTQFLDYLQVFLGVINTEWTMES
notes: recombinant porcine IL-5 protein expressed in E. coli; + / − = with / without antibiotic medicated feed and water, +p = weaner period only
clinical signs (wet faeces or diarrhoea) ([1]; 5 days after challenge): fewer recorded cases of wet faeces and diarrhoea than saline controls or Apralan treatment
E. coli shedding in faeces (faecal culture) ([1]; day 2 to day 6 after challenge): decreased E. coli shedding in faeces
decrease in faecal shedding (total faecal culture scores) compared to saline treated controls ([1]; entire challenge period): 43%
reduction in E. coli culture scores at post-mortem compared to saline controls ([1]; gastro-intestinal tract total): 15%
appetite (daily feed intake per pig) during E. coli challenge ([1]; pig, in vivo): improved appetite compared to saline treated pigs
bacterial load in areas of the gastro-intestinal tract at post-mortem ([1]; pig, in vivo): reduced bacterial load in most areas of the gastro-intestinal tract
days after challenge with bacterial shedding significantly less than saline treated controls ([1]; pig, in vivo): 3/5
group mean total E. coli culture score at post-mortem (out of a possible 30) ([1]; pig, in vivo): less than 15
reduction in clinical signs compared to saline controls ([1]; pig, in vivo): 64%
reduction of bacterial load in the small intestine (foregut) compared with saline controls ([1]; post-mortem): 36%
spirochaete shedding in faeces (faecal culture) ([2]; after challenge): decreasing levels of spirochaete shedding by day 14 after challenge
reduction in the number of spirochaetes compared to saline treated pigs ([2]; anterior colon, post mortem): 63%
reduction in the number of spirochaetes compared to saline treated pigs ([2]; caecum, post mortem): 60%
reduction in the number of spirochaetes compared to saline treated pigs ([2]; faecal, post mortem): 68%
number of spirochaetes cultured from the hindgut at post mortem ([2]; pig, in vivo): reduced the number of spirochaetes residing in the gut compared to saline controls; also recorded: comparable to that shown by the Lincocin antibiotic
incidence of clinical signs in faeces (of 8 pigs) ([2]; post mortem): 3 pigs
reduction in the number of spirochaetes compared to saline treated pigs ([2]; posterior colon, post mortem): 47%
circulating eosinophil numbers (percentage of WBC) ([3]; 100 μg rec.IL-5 IM hind leg, listed as Recombinant IL-5): elevated circulating eosinophil numbers
circulating eosinophil numbers (percentage of WBC) ([3]; 100 μg rec.IL-5 IM hind leg, listed as recombinant IL-5): increase in the duration and level of eosinophils in blood
circulating eosinophil numbers (percentage of WBC) ([3]; 100 μg rec.IL-5 intranasal spray): slight increases on eosinophil numbers compared to the DNA control but not statistically significant
% eosinophil cells of WBC [4]: substantial effect on % eosinophil cells of WBC in both the medicated and un-medicated groups
levels of eosinophils in blood (absolute numbers and differentials) [5]: significantly increased the levels of eosinophils in blood
